# Data from patent US12383631 (BRIGHT PEAK THERAPEUTICS, dated 2025).
# Where a chain is given by its changes, count along the chain named. Numbers in names are those of the source. Where “and” joins values, the source holds several entries; their conditions need not be identical. Equal entries are not always repeated.
# T1: IL-18 receptor (IL-18Rα/IL-18Rβ) on cells (HEK-Blue IL18R reporter cells, NK-92, KG-1) (human, UniProt Q13478 19-541; O95256 20-599)
# T1 sequence (looked up) 1: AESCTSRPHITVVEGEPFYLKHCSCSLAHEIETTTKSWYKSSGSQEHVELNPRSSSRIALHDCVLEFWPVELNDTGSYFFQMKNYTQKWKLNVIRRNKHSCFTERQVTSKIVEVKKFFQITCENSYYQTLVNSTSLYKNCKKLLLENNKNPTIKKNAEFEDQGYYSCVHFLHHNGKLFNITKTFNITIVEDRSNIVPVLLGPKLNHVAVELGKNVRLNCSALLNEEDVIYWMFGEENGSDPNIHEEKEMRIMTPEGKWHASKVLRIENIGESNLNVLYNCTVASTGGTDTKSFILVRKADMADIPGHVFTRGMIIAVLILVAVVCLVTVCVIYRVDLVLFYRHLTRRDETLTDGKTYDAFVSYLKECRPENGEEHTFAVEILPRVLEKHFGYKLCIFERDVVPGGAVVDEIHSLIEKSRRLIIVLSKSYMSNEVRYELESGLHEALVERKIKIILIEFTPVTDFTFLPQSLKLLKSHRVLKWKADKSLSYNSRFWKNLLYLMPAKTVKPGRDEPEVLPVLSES
# T1 sequence (looked up) 2: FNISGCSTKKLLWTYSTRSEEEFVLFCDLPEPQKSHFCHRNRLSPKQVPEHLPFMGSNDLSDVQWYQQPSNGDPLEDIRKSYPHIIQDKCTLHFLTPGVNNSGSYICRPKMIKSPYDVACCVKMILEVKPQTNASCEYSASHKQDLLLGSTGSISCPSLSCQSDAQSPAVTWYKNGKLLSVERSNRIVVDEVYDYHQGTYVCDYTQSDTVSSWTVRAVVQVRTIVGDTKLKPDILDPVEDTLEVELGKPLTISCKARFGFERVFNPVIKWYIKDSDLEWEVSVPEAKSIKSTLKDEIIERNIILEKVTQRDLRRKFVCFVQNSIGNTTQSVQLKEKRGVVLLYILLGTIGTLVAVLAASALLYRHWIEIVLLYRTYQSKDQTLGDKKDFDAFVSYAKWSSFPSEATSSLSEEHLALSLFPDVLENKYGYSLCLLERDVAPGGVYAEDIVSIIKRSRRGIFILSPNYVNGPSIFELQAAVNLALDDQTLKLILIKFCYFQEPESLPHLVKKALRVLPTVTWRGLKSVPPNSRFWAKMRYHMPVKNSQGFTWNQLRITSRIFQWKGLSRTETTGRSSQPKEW
# T2: human IL-18BP-His (human, UniProt O95998 31-194, limits assumed)
# T2 construct: also called His-tagged human IL-18BP; not shown: His tag
# T2 sequence (looked up): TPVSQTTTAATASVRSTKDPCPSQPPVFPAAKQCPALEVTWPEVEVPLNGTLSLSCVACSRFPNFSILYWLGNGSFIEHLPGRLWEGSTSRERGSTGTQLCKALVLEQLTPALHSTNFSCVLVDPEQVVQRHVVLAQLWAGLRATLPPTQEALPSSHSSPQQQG
# B1: IL-18 polypeptide C152 (ligand)
# chain: YFGKLESKLSIIRNLNDQVLFIDQGNRPLFEDMTDADARDNAPRTIFIISMYADSQPRGMAVTISVKCEKISTLSAENKIISFKEMNPPDNIKDTKSDIIFFQRSVPGHDNKMQFESSSYEGYFLAAEKERDLFKLILKKEDELGDRSIMFTVQNED
# notes: also called V11I, S36A, C38A, K53A, C76A, C127A
# B2: IL-18 polypeptide of SEQ ID NO: 50 (E06K, K53A, T63A) (ligand)
# chain: B1 chain with E6K, I11V, A36S, A38C, T63A, A76C, A127C
# B3: IL-18 polypeptide of SEQ ID NO: 59 (E6K, C38A, K53A) (ligand)
# chain: B1 chain with E6K, I11V, A36S, A76C, A127C
# B4: IL-18 polypeptide C163 (ligand)
# chain: B1 chain with A36S, A53K, Q103K
# notes: also called V11I, C38A, C76A, Q103K, C127A
# B5: IL-18 polypeptide C154 (ligand)
# chain: B1 chain with E31A, A36S, D37A
# notes: also called V11I, E31A, D37A, C38A, K53A, C76A, C127A
# B6: IL-18 polypeptide of SEQ ID NO: 57 (E6K, C38S, K53A) (ligand)
# chain: B1 chain with E6K, I11V, A36S, A38S, A76C, A127C
# B7: IL-18 polypeptide of SEQ ID NO: 42 (E06K, K53A, S55A, T63A) (ligand)
# chain: B1 chain with E6K, I11V, A36S, A38C, S55A, T63A, A76C, A127C
# B8: IL-18 polypeptide C166 (ligand)
# chain: B1 chain with A36S, A53K, S55T
# notes: also called V11I, C38A, S55T, C76A, C127A
# B9: IL-18 polypeptide C156 (ligand)
# chain: B1 chain with A36S, N41A
# notes: also called V11I, C38A, N41A, K53A, C76A, C127A
# B10: IL-18 polypeptide of SEQ ID NO: 54 (E06K, K53A, C38S, C68S, C76S, C127S, K70C) (ligand)
# chain: B1 chain with E6K, I11V, A36S, A38S, C68S, K70C, A76S, A127S
# B11: IL-18 polypeptide C159 (ligand)
# chain: B1 chain with A36S, H109A
# notes: also called V11I, C38A, K53A, C76A, H109A, C127A
# B12: IL-18 polypeptide of SEQ ID NO: 60 (E6K, C38Q, K53A) (ligand)
# chain: B1 chain with E6K, I11V, A36S, A38Q, A76C, A127C
# B13: IL-18 polypeptide C155 (ligand)
# chain: B1 chain with A36S, D40A
# notes: also called V11I, C38A, D40A, K53A, C76A, C127A
# B14: IL-18 polypeptide C160 (ligand)
# chain: B1 chain with A36S, D110A
# notes: also called V11I, C38A, K53A, C76A, D110A, C127A
# B15: IL-18 polypeptide C158 (ligand)
# chain: B1 chain with A36S, G108A
# notes: also called V11I, C38A, K53A, C76A, G108A, C127A
# B16: IL-18 polypeptide C157 (ligand)
# chain: B1 chain with A36S, D132A
# notes: also called V11I, C38A, K53A, C76A, C127A, D132A
# B17: IL-18 polypeptide C165 (ligand)
# chain: B1 chain with A36S, A53K, S55R
# notes: also called V11I, C38A, S55R, C76A, C127A
# B18: IL-18 polypeptide C167 (ligand)
# chain: B1 chain with A36S, A53K, S105I
# notes: also called V11I, C38A, C76A, S105I, C127A
# B19: IL-18 polypeptide C164 (ligand)
# chain: B1 chain with A36S, A53K, S55H
# notes: also called V11I, C38A, S55H, C76A, C127A
# B20: IL-18 polypeptide C162 (ligand)
# chain: B1 chain with K8E, A36S, A53K, Q103R
# notes: also called K8E, V11I, C38A, C76A, Q103R, C127A
# B21: IL-18 polypeptide of SEQ ID NO: 62 (E6K, C38A, K53A, C127A) (ligand)
# chain: B1 chain with E6K, I11V, A36S, A76C
# B22: IL-18 polypeptide C161 (ligand)
# chain: B1 chain with K8R, A36S, A53K, Q103E
# notes: also called K8R, V11I, C38A, C76A, Q103E, C127A
# B23: IL-18 polypeptide C153 (ligand)
# chain: B1 chain with A36S, D37A
# notes: also called V11I, D37A, C38A, K53A, C76A, C127A
# B24: IL-18 polypeptide C168 (ligand)
# chain: B1 chain with A36S, A53K, S105K
# notes: also called V11I, C38A, C76A, S105K, C127A
# B25: Composition E (LZM-009 conjugated to IL-18 polypeptide of SEQ ID NO: 60) (other)
# VH: QVQLVQSGAEVKKPGASVKVSCKASGYTFTSYYMYWVRQAPGQGLEWMGGVNPSNGGTNFNEKFKSRVTITADKSTSTAYMELSSLRSEDTAVYYCARRDYRYDMGFDYWGQGTTVTVSS
# VL: EIVLTQSPATLSLSPGERATISCRASKGVSTSGYSYLHWYQQKPGQAPRLLIYLASYLESGVPARFSGSGSGTDFTLTISSLEPEDFATYYCQHSRELPLTFGTGTKVEIK
# chain: B1 chain with E6K, I11V, A36S, A38Q, A76C, A127C
# modifications: chemical linker to the antibody; chemical linker to IL-18
# Biological target: T1, IL-18 receptor (IL-18Rα/IL-18Rβ) on …
# Test: cell-based or functional assay
row,"EC50, HEK-Blue IL18R reporter cells",Binder
1,0.25 pM,B1
2,1.77 pM,B2
3,0.268 pM,B3
4,1.5 pM,B4
5,11.9 pM,B5
6,0.86 pM and 0.53 pM,B6
7,0.79 pM,B7
8,4.73 pM,B8
9,11.7 pM,B9
10,9.12 pM,B10
11,19.5 pM,B11
12,0.203 pM,B12
13,0.52 pM,B13
14,2.02 pM,B14
15,15.6 pM,B15
16,1.95 pM,B16
17,1.91 pM,B17
18,5.37 pM,B18
19,3.14 pM,B19
20,2.3 pM,B20
21,0.17 pM,B21
22,2.01 pM,B22
23,14.1 pM,B23
24,7.73 pM,B24

# Biological target: T1, IL-18 receptor (IL-18Rα/IL-18Rβ) on …
# Test: cell-based or functional assay
# Remark: another data set of the same source
row,"EC50, IFNγ stimulation, NK92 cells",Binder
1,0.033 nM,B1
2,0.0268 nM,B2
3,0.015 nM,B3
4,0.093 nM,B4
5,0.062 nM,B5
6,0.045 nM,B6
7,0.144 nM,B7
8,0.098 nM,B8
9,0.558 nM,B9
10,0.962 nM,B10
11,0.123 nM,B11
12,0.006 nM,B12
13,0.067 nM,B13
14,0.028 nM,B14
15,0.073 nM,B15
16,0.056 nM,B16
17,0.176 nM,B17
18,0.103 nM,B18
19,0.414 nM,B19
20,0.061 nM,B20
21,0.026 nM,B21
22,0.057 nM,B22
23,0.175 nM,B23
24,0.098 nM,B24

# Biological target: T1, IL-18 receptor (IL-18Rα/IL-18Rβ) on …
# Test: cell-based or functional assay
# Remark: another data set of the same source
row,"EC50, IFNγ secretion, NK92 cells",Binder
1,0.056 nM,B25
2,0.008 nM,B12

# Biological target: T2, human IL-18BP-His
# Test: AlphaLISA of free IL-18BP
# Experimental: The plate is incubated further for 1 hr at room temperature. Under subdued light, 12.5 µL of 2× streptavidin (SA) donor beads are pipetted into each well, and the wells are incubated with shaking for an additional 30 min at room temperature. The AlphaLisa signal is then measured on an Enspire plate reader with 680 and 615 nm as excitation and emission wavelengths, respectively. The dissociation constant (K_D) is calculated based on a variable slope, four parameter analysis using GraphPad PRISM software.
row,Kd,Binder
1,1.12 nM,B1
2,340 nM,B2
3,36 nM,B3
4,0.05 nM,B4
5,2.12 nM,B5
6,50.2 nM,B6
7,822 nM,B7
8,0.02 nM,B8
9,18.5 nM,B9
10,446 nM,B10
11,0.55 nM,B11
12,24.8 nM,B12
13,0.74 nM,B13
14,0.71 nM,B14
15,1.24 nM,B15
16,13.7 nM,B16
17,0.15 nM,B17
18,0.04 nM,B18
19,0.08 nM,B19
20,0.85 nM,B20
21,69.6 nM,B21
22,0.06 nM,B22
23,4.55 nM,B23
24,0.05 nM,B24
